This assay addresses Shank3 (UniProt Q4ACU6 1-1730). As to the kind of experiment: ITC. (Isothermal titration calorimetry measures the heat released or taken up as one component is titrated into another.)

Substitutions are numbered along the chain they refer to. Numbers in names are those of the source.

Sequence of Shank3 (Q4ACU6 whole entry): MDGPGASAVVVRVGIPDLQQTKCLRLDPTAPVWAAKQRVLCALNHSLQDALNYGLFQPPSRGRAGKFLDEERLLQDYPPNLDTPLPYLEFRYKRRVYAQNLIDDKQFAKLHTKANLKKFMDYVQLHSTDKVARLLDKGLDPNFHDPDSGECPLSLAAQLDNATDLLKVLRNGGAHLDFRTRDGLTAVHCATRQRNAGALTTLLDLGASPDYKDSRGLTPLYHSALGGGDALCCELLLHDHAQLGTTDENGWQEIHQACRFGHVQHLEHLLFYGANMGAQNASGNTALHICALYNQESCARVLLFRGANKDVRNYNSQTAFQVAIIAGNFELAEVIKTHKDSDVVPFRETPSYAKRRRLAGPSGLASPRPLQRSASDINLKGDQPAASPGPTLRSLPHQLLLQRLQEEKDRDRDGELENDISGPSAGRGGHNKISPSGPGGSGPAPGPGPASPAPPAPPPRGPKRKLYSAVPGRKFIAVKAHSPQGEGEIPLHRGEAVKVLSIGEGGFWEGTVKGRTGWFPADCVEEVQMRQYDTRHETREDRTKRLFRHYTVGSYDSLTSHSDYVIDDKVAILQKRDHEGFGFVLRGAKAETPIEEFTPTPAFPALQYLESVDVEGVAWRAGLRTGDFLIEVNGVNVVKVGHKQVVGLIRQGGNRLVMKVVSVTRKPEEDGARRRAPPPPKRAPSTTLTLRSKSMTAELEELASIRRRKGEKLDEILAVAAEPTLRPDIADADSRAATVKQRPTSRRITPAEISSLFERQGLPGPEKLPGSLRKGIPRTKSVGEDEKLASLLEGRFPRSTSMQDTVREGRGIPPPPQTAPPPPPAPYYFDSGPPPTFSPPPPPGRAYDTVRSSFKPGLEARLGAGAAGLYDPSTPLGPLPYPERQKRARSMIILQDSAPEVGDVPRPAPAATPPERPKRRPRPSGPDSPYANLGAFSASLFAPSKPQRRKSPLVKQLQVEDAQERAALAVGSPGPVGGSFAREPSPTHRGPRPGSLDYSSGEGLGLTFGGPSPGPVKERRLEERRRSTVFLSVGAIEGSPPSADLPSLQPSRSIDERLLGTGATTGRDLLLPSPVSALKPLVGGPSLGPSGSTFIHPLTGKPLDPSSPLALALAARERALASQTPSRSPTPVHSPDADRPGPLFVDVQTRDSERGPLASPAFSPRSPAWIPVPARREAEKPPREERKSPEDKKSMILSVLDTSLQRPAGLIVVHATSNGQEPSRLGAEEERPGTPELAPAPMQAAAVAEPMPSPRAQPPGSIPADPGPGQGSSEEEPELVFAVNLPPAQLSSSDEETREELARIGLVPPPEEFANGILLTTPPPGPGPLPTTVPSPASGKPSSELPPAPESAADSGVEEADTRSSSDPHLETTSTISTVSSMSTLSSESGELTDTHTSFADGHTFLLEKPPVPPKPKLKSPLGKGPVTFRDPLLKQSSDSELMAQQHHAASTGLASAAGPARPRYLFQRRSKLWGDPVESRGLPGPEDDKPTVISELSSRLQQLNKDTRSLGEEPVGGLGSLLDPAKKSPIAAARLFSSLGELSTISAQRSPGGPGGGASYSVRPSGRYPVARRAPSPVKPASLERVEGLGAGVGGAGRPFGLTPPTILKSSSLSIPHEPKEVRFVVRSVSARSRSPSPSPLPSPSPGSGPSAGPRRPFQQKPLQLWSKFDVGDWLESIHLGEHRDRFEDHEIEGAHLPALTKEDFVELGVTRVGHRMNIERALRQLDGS

B1: Homer1-R3E (natural protein)
chain: MGEQPIFSTRAHVFQIDPNTKKNWVPTSKHAVTVSYFYDSTENVYEIISLDGSKAIINSTITPNMTFTKTSQKFGQWADSEANTVYGLGFSSEHHLSKFAEKFQEFKEAARLAKEKSQEKMELTSTPSQESAGGDLQSPLTPESINGTDDERTPDVTQNSEPRAEPAQNALPFSHSAGDRTQGLSHASSAISKHWEAELATLKGNNAKLTAALLESTANVKQWKQQLAAYQEEAERLHKRVTELECVSSQANAVHSHKTELSQTVQELEETLKVKEEEIERLKQEIDNARELQEQRDSLTQKLQEVEIRNKDLEGQLSELEQRLEKSQSEQDAFRSNLKTLLEILDGKIFELTELRDNLAKLLECS
What is called Kd is the constant that tells how readily two partners part at equilibrium. Lower therefore signals a tighter complex. Molecule B1 came in with a Kd of 2400 nM. In other words, the single-digit micromolar range.

B2: Homer1-WT (full-length Homer1) (natural protein)
chain: B1 chain with E42R, E46R, E81R
Molecule B2 displayed a Kd of 1000 nM.

The values above are taken from paper PMC10322149 (2023).
